Some targets named below: Flag-Smad4, full length (UniProt Q13485); Flag-Smad3, full length (UniProt P84022); Flag-SARA, full length (UniProt O95405).
Common to all, as to experiment: co-IP; LUMIER: Renilla luciferase-Smad3 and Flag-tagged partner co-expressed with constitutively active Alk5 in HEK-293; Flag protein captured from cleared lysate (TNE: 10 mM Tris-HCl pH 7.8, 150 mM NaCl, 1 mM EDTA, 1% Igepal CA-630) on anti-Flag 96-well plates, 2 h at 4 °C; co-precipitated Renilla luciferase activity, TrxGA background subtracted, percent of wild-type Smad3

Test [1] has as its target Smurf2 Smad-binding domain (amino acids 252–330) on the Flag-thioredoxin scaffold (UniProt Q9HAU4).
Test [2] concerns the target SIP1 Smad-binding domain (amino acids 315–487) on the 3xFlag-thioredoxin scaffold (UniProt Q9R0G7).
The target of test [3] is Ski Smad-binding domain (amino acids 2–56) on the 3xFlag-thioredoxin scaffold (UniProt P12755).
Ski Smad-binding domain (amino acids 2–56) on the 3xFlag-thioredoxin scaffold, sequence (P12755 2-56): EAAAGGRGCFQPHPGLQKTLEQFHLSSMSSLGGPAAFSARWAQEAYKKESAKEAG
In test [4] the target is SARA Smad-binding domain (amino acids 665–721) on the 3xFlag-thioredoxin scaffold (UniProt O95405).
SARA Smad-binding domain (amino acids 665–721) on the 3xFlag-thioredoxin scaffold, sequence (O95405 767-823): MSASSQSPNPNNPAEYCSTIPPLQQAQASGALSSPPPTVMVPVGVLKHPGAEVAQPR
For test [5], the target named is Flag-SkiW274E, full length (UniProt P12755).
Flag-SkiW274E, full length, sequence (P12755 whole entry W274E): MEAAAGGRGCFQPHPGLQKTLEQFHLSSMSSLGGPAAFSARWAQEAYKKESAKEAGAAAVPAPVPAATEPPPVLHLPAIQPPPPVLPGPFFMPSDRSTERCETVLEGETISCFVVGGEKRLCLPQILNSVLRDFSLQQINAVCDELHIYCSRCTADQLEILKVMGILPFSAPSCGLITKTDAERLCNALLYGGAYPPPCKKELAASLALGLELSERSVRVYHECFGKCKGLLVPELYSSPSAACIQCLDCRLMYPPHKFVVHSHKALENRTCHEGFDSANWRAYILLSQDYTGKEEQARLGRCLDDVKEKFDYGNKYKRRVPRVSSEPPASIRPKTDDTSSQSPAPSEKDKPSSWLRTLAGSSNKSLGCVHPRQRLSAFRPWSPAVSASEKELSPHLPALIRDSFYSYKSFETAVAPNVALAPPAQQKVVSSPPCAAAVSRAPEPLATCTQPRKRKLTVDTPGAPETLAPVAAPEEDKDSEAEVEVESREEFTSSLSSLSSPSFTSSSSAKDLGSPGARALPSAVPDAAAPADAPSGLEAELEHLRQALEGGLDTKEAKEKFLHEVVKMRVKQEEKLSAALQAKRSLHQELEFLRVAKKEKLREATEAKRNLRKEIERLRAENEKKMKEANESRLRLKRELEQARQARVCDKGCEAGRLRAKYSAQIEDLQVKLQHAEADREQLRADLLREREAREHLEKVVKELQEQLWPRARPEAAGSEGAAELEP

Renilla luciferase-Smad3 Del-PPGY (182–185), sequence (P84022 whole entry): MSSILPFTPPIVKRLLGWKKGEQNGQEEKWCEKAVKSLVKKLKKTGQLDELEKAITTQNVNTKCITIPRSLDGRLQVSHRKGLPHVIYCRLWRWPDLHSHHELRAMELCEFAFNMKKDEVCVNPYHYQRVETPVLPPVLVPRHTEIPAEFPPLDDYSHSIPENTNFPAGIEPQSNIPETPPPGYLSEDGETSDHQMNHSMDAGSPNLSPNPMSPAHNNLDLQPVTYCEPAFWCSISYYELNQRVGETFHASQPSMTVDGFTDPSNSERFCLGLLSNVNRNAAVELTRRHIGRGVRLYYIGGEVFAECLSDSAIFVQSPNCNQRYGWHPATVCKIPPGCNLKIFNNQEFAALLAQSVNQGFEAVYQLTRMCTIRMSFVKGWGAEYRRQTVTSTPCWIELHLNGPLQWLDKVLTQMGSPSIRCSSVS
Flag-Smad3, full length, sequence (P84022 whole entry): as above
Smurf2 Smad-binding domain (amino acids 252–330) on the Flag-thioredoxin scaffold, sequence (Q9HAU4 252-330): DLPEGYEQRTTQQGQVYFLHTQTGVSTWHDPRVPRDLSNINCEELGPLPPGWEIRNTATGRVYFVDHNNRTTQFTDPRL
SIP1 Smad-binding domain (amino acids 315–487) on the 3xFlag-thioredoxin scaffold, sequence (Q9R0G7 315-487): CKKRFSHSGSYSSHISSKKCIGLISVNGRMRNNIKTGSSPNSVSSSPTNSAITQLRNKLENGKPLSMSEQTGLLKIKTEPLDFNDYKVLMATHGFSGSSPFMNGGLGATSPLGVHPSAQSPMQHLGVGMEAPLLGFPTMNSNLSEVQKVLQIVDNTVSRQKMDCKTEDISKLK
Flag-SARA, full length, sequence (O95405 whole entry): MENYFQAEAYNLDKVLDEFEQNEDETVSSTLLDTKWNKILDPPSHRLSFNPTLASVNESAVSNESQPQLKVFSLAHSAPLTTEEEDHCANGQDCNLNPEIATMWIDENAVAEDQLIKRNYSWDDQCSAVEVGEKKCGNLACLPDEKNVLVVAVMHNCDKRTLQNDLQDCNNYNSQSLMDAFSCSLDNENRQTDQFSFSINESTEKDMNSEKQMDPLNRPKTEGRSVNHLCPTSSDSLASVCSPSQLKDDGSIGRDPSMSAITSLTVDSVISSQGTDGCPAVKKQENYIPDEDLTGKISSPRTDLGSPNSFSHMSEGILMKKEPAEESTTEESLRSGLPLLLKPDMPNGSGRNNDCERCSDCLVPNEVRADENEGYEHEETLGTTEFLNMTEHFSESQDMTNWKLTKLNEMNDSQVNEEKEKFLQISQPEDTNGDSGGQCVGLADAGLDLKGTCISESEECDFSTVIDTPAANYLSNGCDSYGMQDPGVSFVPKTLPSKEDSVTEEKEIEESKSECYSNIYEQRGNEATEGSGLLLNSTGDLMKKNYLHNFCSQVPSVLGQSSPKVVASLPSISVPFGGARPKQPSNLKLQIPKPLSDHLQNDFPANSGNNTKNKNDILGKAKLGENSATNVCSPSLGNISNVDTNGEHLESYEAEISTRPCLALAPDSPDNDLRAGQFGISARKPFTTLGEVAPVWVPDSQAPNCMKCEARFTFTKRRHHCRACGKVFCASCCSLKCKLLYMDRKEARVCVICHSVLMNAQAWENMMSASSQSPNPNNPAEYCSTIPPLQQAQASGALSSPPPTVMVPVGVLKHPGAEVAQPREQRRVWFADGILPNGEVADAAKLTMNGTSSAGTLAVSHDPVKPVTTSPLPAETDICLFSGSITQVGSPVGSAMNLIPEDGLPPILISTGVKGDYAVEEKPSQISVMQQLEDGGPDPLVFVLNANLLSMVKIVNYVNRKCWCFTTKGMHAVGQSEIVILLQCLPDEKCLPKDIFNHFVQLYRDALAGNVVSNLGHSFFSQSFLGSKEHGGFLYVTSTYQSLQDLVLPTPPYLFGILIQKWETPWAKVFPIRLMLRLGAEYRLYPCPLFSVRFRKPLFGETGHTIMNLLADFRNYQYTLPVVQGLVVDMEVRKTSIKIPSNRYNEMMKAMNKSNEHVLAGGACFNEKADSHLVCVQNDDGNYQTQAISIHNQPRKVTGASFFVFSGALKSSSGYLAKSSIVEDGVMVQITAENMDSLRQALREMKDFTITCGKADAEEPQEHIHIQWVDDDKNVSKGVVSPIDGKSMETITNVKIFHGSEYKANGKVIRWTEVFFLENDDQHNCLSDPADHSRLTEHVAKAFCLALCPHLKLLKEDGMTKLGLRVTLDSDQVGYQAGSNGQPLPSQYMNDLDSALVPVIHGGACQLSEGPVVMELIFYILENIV
Flag-Smad4, full length, sequence (Q13485 whole entry): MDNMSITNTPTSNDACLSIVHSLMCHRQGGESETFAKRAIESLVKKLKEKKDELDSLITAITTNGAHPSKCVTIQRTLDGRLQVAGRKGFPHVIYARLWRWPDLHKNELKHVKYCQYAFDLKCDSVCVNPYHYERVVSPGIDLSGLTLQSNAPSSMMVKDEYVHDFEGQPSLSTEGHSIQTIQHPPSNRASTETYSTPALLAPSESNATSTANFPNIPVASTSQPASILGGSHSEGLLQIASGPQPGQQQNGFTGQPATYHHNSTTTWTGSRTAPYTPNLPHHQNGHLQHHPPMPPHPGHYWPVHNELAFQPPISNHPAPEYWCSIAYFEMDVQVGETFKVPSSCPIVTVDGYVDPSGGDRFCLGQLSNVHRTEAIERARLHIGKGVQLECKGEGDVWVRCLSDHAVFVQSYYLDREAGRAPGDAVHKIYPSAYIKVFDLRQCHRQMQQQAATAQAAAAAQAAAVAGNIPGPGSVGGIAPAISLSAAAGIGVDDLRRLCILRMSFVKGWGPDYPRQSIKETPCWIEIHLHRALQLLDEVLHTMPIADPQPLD

Turning to “Renilla luciferase-Smad3 Del-PPGY (182–185) (from UniProt P84022 1-425) (natural protein)”, the percent binding relative to wild-type Smad3 is 120% with Flag-Smad4, full length; 86% with Flag-Smad3, full length; 3% in test [1]; 200% in test [2]; 158% with Flag-SARA, full length; 160% in test [3]. In addition, the percent binding relative to wild-type Smad3 was determined as 129% in test [4] and 83% in test [5].

The values are drawn from publication PMC3176292.
